Drawing on patent US20080003199A1, this text covers NF-κB promoter activity (luciferase reporter, % increase) in neonatal rat cardiomyocytes for one substance.

The target in this assay is recombinant mature rat IL-33 with N-terminal His-tag (rat) (UniProt Q66H70). Description: cell-based or functional assay.
Sequence of recombinant mature rat IL-33 with N-terminal His-tag (rat) (Q66H70 109-264): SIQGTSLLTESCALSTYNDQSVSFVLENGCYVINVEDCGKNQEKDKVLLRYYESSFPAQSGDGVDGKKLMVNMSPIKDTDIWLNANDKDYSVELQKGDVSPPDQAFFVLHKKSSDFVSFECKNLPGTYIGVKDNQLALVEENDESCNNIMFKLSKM

On to “mouse soluble ST2 (R&D) (from UniProt P14719 27-337)”, for which the NF-κB promoter activity (luciferase reporter, % increase) in neonatal rat cardiomyocytes was found to be 42%.
